The record followed here is patent US20090092614A1 (Biogen, published 2009).

Read-outs that look alike come from different tables or passages of the source.

As usually defined, the EC50 (read off the curve) is the concentration giving half of the maximal effect. Low readings indicate higher potency in that assay, high ones lower potency in that assay.

Test [1] concerns the target T1, human IGF-1R(1-903)-Fc (human, UniProt P08069 31-933).
T1 construct: Made by Biogen Idec; also called hIGF-1R-Fc; IGF-1R-Fc
Put plainly: competition ELISA: biotinylated hIGF-1R-Fc on streptavidin plate, antibody titrated in 320 nM human IGF-1 His (blocked ligand), anti-His-HRP detection. (In general: In an ELISA, binding on a coated surface is turned into a signal by an enzyme label.)

Test [2] has as its target T1, human IGF-1R(1-903)-Fc. As to the kind of experiment: blocking ELISA, competitor 320 nM IGF-1.
Test [3] addresses T1, human IGF-1R(1-903)-Fc. As to the kind of experiment: competition ELISA: biotinylated hIGF-1R-Fc on streptavidin plate, M14-G11 titrated in 20 nM human IGF-1 His (blocked ligand).
For test [4], the target named is T2, sIGF-1R(1-903) (human, UniProt P08069 31-933).
T2 construct: also called soluble recombinant human IGF-1R ectodomain
As to the kind of experiment: ITC, 37 °C. (In general: ITC needs no label: the signal is the heat of the interaction.)
Protocol: (§1) These protein solutions were adjusted to the concentrations listed above by dialyzing in PBS. ITC experiments were performed on an ITC200 microcalorimeter (MicroCal, LLC). […] A four minute equilibration period was used between all injections with an initial delay of 60 seconds. […] The lower limit of the protein concentrations capable of generating sufficient signal by calorimetry to measure a change in heat was ˜2-4 micromolar protein.

The target of test [5] is T1, human IGF-1R(1-903)-Fc. As to the kind of experiment: competition ELISA: biotinylated hIGF-1R-Fc on streptavidin plate, M14-G11 titrated in 320 nM human IGF-1 His (blocked ligand).
The target of test [6] is T2, sIGF-1R(1-903). As to the kind of experiment: ITC, 25 °C.
Protocol: as §1
For test [7], the target named is T1, human IGF-1R(1-903)-Fc. Put plainly: blocking ELISA, competitor 640 nM IGF-2.
Test [8] concerns the target T1, human IGF-1R(1-903)-Fc. Put plainly: ELISA on plate-coated soluble IGF-1R-Fc, goat anti-human kappa-HRP.
Protocol: (§2) The absorbance was measured at 450 nm, background 540 nm for TMB using the Molecular Devices plate reader. Data was analyzed using the SOFTMAX PRO software package version 4.3 LS (Molecular Devices Corp.).
Test [9] deals with T2, sIGF-1R(1-903). As to the kind of experiment: ITC, 5 °C.
Protocol: as §1
The target in test [10] is T1, human IGF-1R(1-903)-Fc. Put plainly: ELISA on plate-coated soluble IGF-1R-Fc, goat anti-human kappa-HRP. The source holds these as a separate data set.
Protocol: as §2
The next test deals with T3, hIGF-1R-Fc mutant SD012 (human, UniProt P08069 31-933).
T3 construct: Positions count without the 30-residue signal peptide; also called E303G; not shown: human IgG1 Fc tag
As to the kind of experiment: SPR.

The target of another test is T4, hIGF-1R-Fc mutant SD008 (human, UniProt P08069 31-933).
T4 construct: Positions count without the signal peptide; also called S257F; not shown: human IgG1 Fc tag
As to the kind of experiment: SPR.

Test [11] deals with T5, human INSR(28-956)-His10 (human, UniProt P06213 28-956).
T5 construct: range 28-956; Bought (R&D Systems); also called rh-INSR (R&D 1544-IR); INSR-His10
As to the kind of experiment: ELISA on plate-coated rh-INSR, goat anti-human kappa-HRPO.
Protocol: (§3) ELISA assays were performed to determine specific binding of the Fab fragment antibodies to soluble IGF-1R over the insulin receptor. […] Color development was stopped by addition of 4NH₂SO₄ and optical density is measured at 450 nm using a Molecular Devices plate reader and binding curves are generated.

Test [12] deals with T5, human INSR(28-956)-His10. As to the kind of experiment: ELISA, rh-INSR coated.
Protocol: as §3
Test [13] concerns the target T6, human IGF-1R(1-902)-His10 (human, UniProt P08069 31-932).
T6 construct: Bought (R&D Systems); also called hIGF-1R-His10; IGF-1R-His
As to the kind of experiment: ELISA on plate-coated rh-IGF-1R, goat anti-human kappa-HRPO.

A further test concerns the target T7, hIGF-1R-Fc mutant SD108 (human, UniProt P08069 31-933).
T7 construct: build as m36 with the substitution; also called H480E; not shown: C-terminal human IgG1-Fc tag and its junction
Put plainly: KD grade of mutant hIGF-1R-Fc; S = binding to antibody was ablated by mutation.

The next test has as its target T8, hIGF-1R-Fc mutant SD113 (human, UniProt P08069 31-933).
T8 construct: build as m36 with the substitutions; also called E570A I571T
The description is as above.

A further test addresses T9, hIGF-1R-Fc mutant SD104 (human, UniProt P08069 31-933).
T9 construct: build as m36 with the substitution; also called H464A; not shown: C-terminal human IgG1-Fc tag and its junction
The description is as above.

Another test addresses T10, hIGF-1R-Fc mutant SD102 (human, UniProt P08069 31-933).
T10 construct: build as m36 with the substitutions; also called E459A S460A
Described as above.

For a further test, the target named is T11, hIGF-1R-Fc mutant SD110 (human, UniProt P08069 31-933).
T11 construct: build as m36 with the substitution; also called E533H; not shown: C-terminal human IgG1 Fc tag
The test is described as above.

In another test the target is T12, hIGF-1R-Fc mutant SD109 (human, UniProt P08069 31-933).
T12 construct: build as m36 with the substitutions; also called Y482A R483W; not shown: C-terminal human IgG1-Fc tag and its junction
The description is as above.

The target in the next test is T13, hIGF-1R-Fc mutant SD103 (human, UniProt P08069 31-933).
T13 construct: build as m36 with the substitutions; also called D461A V462T
The test is described as above.

Test [14] addresses T14, hIGF-1R-Fc mutant SD015 (human, UniProt P08069 31-933).
T14 construct: Positions count without the signal peptide; also called H464E; not shown: human IgG1 Fc tag
The description is as above.

Test [15] deals with human IGF-1R (full length, on cells) (human, UniProt P08069 31-740; P08069 741-1367). As to the kind of experiment: cell-based or functional assay.
Test [16] has as its target T2, sIGF-1R(1-903). Put plainly: ITC, 15 °C.
Protocol: as §1
In test [17] the target is T14, hIGF-1R-Fc mutant SD015. Put plainly: SPR, Fab over captured mutant. Background: Surface plasmon resonance follows binding to a sensor surface in real time, without labels.
Protocol: After, completion of the receptor-Fc loading step, flow rates were elevated to 5 μl/min. […] At the end of each sensorgram, the flow rate was elevated to 30 μl/min and the chip surface was regenerated by 2×10 μL injections of 0.1 M glycine, pH 2.

T5 sequence (P06213 other isoform, or with tags, fused parts or gaps limits assumed): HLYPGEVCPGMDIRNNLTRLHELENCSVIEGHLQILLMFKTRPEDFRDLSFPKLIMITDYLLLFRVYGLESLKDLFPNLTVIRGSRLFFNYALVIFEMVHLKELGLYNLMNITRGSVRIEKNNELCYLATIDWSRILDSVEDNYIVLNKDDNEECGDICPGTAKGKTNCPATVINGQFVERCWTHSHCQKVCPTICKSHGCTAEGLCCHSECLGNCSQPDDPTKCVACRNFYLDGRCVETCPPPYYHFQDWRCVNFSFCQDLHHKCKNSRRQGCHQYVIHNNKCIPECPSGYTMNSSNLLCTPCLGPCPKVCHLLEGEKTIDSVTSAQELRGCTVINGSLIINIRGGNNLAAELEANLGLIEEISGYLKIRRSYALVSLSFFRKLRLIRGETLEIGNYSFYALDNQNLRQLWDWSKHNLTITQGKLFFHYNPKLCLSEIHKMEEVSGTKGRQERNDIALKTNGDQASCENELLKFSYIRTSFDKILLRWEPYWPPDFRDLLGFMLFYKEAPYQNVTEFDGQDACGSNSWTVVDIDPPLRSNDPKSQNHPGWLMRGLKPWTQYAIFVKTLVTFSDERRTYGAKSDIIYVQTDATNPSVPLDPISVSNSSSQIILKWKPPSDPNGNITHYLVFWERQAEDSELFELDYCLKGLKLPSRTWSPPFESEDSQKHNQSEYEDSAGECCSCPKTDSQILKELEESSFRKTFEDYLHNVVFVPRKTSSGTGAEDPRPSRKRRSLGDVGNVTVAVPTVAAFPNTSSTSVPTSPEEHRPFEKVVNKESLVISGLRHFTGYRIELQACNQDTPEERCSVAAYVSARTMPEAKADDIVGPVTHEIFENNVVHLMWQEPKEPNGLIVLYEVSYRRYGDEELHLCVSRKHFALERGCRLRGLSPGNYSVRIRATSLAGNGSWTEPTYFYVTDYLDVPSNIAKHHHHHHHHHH
T2 sequence (P08069 31-933): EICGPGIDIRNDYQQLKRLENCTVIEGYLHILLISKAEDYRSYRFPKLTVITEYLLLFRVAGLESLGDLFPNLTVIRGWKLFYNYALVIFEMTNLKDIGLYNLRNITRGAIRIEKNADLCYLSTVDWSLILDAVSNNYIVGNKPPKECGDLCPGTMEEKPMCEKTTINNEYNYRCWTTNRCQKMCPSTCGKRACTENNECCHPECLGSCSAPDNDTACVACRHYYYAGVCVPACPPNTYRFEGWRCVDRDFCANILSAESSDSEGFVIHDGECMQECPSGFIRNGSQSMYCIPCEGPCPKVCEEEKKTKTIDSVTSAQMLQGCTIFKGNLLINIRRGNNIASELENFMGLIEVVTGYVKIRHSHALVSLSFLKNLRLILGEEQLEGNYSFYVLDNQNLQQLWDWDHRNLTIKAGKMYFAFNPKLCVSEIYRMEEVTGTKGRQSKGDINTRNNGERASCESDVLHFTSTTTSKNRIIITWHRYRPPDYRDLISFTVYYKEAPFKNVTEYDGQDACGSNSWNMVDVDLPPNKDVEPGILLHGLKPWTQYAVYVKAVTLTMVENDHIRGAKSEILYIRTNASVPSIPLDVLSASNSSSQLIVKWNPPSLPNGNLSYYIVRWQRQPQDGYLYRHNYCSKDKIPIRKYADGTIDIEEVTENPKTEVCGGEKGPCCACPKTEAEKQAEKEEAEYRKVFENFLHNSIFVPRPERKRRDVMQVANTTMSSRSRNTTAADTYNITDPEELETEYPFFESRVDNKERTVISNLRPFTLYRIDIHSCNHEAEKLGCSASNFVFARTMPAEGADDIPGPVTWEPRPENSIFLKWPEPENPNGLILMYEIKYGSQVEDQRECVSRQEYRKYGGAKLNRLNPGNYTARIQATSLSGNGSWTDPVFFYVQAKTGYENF
T1 sequence (P08069 31-933): as above
T14 sequence (P08069 other isoform, or with tags, fused parts or gaps mutant): as the sequence (P08069 31-933) above, with H464E counted along it
T6 sequence (P08069 other isoform, or with tags, fused parts or gaps): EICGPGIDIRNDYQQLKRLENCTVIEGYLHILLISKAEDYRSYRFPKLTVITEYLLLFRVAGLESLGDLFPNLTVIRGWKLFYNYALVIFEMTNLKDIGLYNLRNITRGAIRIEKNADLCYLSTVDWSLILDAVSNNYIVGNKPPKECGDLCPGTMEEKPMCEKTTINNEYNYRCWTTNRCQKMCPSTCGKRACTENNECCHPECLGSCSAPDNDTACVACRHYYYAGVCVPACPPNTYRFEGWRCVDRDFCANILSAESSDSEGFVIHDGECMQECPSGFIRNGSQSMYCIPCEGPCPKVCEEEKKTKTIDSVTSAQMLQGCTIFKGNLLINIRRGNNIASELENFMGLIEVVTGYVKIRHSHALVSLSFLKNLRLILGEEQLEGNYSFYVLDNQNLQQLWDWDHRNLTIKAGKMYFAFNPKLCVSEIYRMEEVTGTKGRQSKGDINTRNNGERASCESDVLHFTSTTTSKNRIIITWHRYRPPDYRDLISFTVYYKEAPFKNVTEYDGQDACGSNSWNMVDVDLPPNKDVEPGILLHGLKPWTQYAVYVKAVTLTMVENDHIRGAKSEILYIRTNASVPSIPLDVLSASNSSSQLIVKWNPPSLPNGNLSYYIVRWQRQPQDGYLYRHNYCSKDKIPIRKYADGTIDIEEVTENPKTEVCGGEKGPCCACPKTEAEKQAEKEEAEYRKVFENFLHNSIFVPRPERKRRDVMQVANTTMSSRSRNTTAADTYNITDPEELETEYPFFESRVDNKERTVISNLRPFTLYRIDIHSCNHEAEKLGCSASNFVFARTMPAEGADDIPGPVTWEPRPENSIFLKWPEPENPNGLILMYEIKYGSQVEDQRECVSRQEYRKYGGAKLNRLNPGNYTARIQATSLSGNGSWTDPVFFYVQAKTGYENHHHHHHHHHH

B1: M14-G11.G4.P.agly (antibody, human IgG4 S228P, kappa, V domains shown)
VH: EVQLLESGGGLVQPGGSLRLSCAASGFTFSNYPMYWVRQAPGKGLEWVSRISSSGGRTVYADSVKGRFTISRDNSKNTLYLQMNSLRAEDTAVYYCARDRWSRSAAEYGLGGYWGQGTLVTVSS
VL: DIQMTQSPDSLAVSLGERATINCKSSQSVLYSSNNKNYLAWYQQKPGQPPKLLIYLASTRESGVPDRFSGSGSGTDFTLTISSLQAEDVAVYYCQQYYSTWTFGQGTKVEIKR
notes: Aglycosylated human IgG4 (S228P, T299A), kappa; also called M14-G11_Ab; Biotin-G11
B1: the “IC50 (read off the curve)” value with human IGF-1R(1-903)-Fc [1] was approximately 6 nM; with human IGF-1R(1-903)-Fc [3], approximately 2 nM; with human IGF-1R(1-903)-Fc [5], approximately 6 nM. For the same molecule, the “% IGF-1 inhibition upon antibody saturation” value in the test with human IGF-1R(1-903)-Fc [2] worked out at 1%. The “stoichiometry of binding (N)” value came out at 0.7 with sIGF-1R(1-903) [4], 0.91 in the test with sIGF-1R(1-903) [6] and 0.9 with sIGF-1R(1-903) [9]. Besides, the figures for the “ΔH°” value with sIGF-1R(1-903) [4], with sIGF-1R(1-903) [6] and with sIGF-1R(1-903) [9] were -39.5 kcal/mol, -26.6 kcal/mol and -6.7 kcal/mol, respectively. Also, the “% IGF-2 inhibition upon antibody saturation” value with human IGF-1R(1-903)-Fc [7] is 1%. Besides, the “EC50 (read off the curve)” value in the test with human IGF-1R(1-903)-Fc [8] was approximately 0.05 nM.

B2: M14-G11.G4.P (antibody, human IgG4, V domains shown)
VH: B1 VH
VL: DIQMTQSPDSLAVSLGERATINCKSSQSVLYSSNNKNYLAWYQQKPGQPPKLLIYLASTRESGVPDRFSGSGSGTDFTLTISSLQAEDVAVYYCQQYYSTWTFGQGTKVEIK
notes: Full-length human IgG4.P, kappa; also called M14.G11.P; G4 version of M14-G11
For the molecule B2, the “EC50 (read off the curve)” value in the test with human IGF-1R(1-903)-Fc [10] was approximately 0.05 nM.

B3: M14-G11 Fab (Fab, V domains shown)
VH: B1 VH
VL: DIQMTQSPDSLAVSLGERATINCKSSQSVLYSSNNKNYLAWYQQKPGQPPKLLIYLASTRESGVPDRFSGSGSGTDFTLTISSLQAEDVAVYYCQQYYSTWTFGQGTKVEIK
notes: Human kappa Fab (phage library, or papain digest of the full-length antibody)
For the molecule B3, the “fold loss in affinity against wild type” value in the test with hIGF-1R-Fc mutant SD012 and with hIGF-1R-Fc mutant SD008 was approximately 3 fold each time.

B4: M12-G04 Fab (Fab, V domains shown)
VH: EVQLLESGGGLVQPGGSLRLSCAASGFTFSKYTMHWVRQAPGKGLEWVSSIVSSGGWTDYADSVKGRFTISRDNSKNTLYLQMNSLRAEDTAVYYCARDRSIAAAGTGWSVSFVDWFDPWGQGTLVTVSS
VL: DIQMTQSPLSLSASVGDRVTITCRASQSINGYLNWYQQKPGKAPNLLIYATSSLQSGVPSRFSGSGSGTDFTLTISSLQPEDFATYYCQQSYSTPPYTFGQGTKLEIK
notes: Human kappa Fab from a phage library
On to B4, for which, in the test with human INSR(28-956)-His10 [11], the binding result was “no binding (tested: about 5000 nM (baseline markers overlap))”.

B5: M12-E01 Fab (Fab, V domains shown)
VH: EVQLLESGGGLVQPGGSLRLSCAASGFTFSPYSMLWVRQAPGKGLEWVSSIGSSGGSTRYADSVKGRFTISRDNSKNTLYLQMNSLRAEDTAMYYCARVRGILHYDILIGRNLYYYYMDVWGKGTTVTVSS
VL: QYELTQPPSVSEAPRQRVTISCSGSSSNIGNNAINWYQQLPGKPPKLLIYYDDLLPSGVSDRFSGSKSGTSGSLAISGLQSEDEADYYCAAWDDNLNGVIFGGGTKLTVL
notes: Human lambda Fab from a phage library
Take B5: the binding result in the test with human INSR(28-956)-His10 [12] is on record as “no binding (tested: 2 µM)”.

B6: M14-B01 Fab (Fab, V domains shown)
VH: EVQLLESGGGLVQPGGSLRLSCAASGFTFSNYHMAWVRQAPGKGLEWVSVISPTGGRTTYADSVKGRFTISRDNSKNTLYLQMNSLRAEDTATYYCARAGYSYGYGYFDYWGQGTLVTVSS
VL: DIQMTQFPATLSVSPGERATLSCRASQSVMRNLAWYQQKPGQPPRLLIYGASKRATGIPARFSGSGSGTAFTLTISNLEPEDFAVYYCHQRSTWPLGTFGPGTKLEAK
notes: as for B4
Take B6: the binding result in the test with human INSR(28-956)-His10 [11] is listed as “no binding”. The “EC50 (read off the curve)” value in test [13] was approximately 5 nM.

B7: M14-C03.G4.P.agly (antibody, human IgG4 S228P, kappa, V domains shown)
VH: EVQLLESGGGLVQPGGSLRLSCAASGFTFSKYMMSWVRQAPGKGLEWVSYISPSGGLTWYADSVKGRFTISRDNSKNTLYLQMNSLRAEDTAVYYCARDGARGYGMDVWGQGTTVTVSS
VL: DIQMTQSPATLSLSPGERATLSCRASQSVSSYLAWYQQKPGQAPRLLIYDASNRATGIPARFSGSGSGTDFTLTISSLEPEDFAVYYCQQRSNWPPEVTFGPGTKVDIKR
notes: Aglycosylated human IgG4 (S228P, T299A), kappa; also called M14-C03_Ab
Turning to B7, the “% IGF-1 inhibition upon antibody saturation” value in the test with human IGF-1R(1-903)-Fc [2] came to 19%. Also, the binding result with hIGF-1R-Fc mutant SD108, with hIGF-1R-Fc mutant SD113, in the test with hIGF-1R-Fc mutant SD104, in the test with hIGF-1R-Fc mutant SD102, in the test with hIGF-1R-Fc mutant SD110 and in the test with hIGF-1R-Fc mutant SD109 was “no binding” throughout. Further, the binding result in the test with hIGF-1R-Fc mutant SD103 and with hIGF-1R-Fc mutant SD015 [14] was “no binding” each time. Besides, the “% IGF-2 inhibition upon antibody saturation” value with human IGF-1R(1-903)-Fc [7] stood at 21%.

B8: M13-C06.G4.P.agly (antibody, human IgG4 S228P, kappa, V domains shown)
VH: EVQLLESGGGLVQPGGSLRLSCAASGFTFSIYRMQWVRQAPGKGLEWVSGISPSGGTTWYADSVKGRFTISRDNSKNTLYLQMNSLRAEDTAVYYCARWSGGSGYAFDIWGQGTMVTVSS
VL: DIQMTQSPLSLSASVGDRVTITCQASRDIRNYLNWYQQKPGKAPKLLIYDASSLQTGVPSRFGGSGSGTDFSFTIGSLQPEDIATYYCQQFDSLPHTFGQGTKLEIKR
notes: Aglycosylated human IgG4 (S228P, T299A, EU numbering), kappa; also called M13-C06_Ab; Eu-C06
As to B8, in [15], the “Inhibition of IGF-1 stimulated phosphorylation of IGF-1R (IC50 nM)” value was less than 0.13 nM. The “Inhibition of IGF-2 stimulated phosphorylation of IGF-1R (IC50 nM)” value in test [15] was less than 0.63 nM. In addition, in the test with human IGF-1R(1-903)-Fc [2], the “% IGF-1 inhibition upon antibody saturation” value is 25%. Also, the “stoichiometry of binding (N)” value with sIGF-1R(1-903) [16] came to 0.98; with sIGF-1R(1-903) [4], 0.97; with sIGF-1R(1-903) [6], 0.98; with sIGF-1R(1-903) [9], 0.89. In addition, the “ΔH°” value in the test with sIGF-1R(1-903) [16] is -14.4 kcal/mol; in the test with sIGF-1R(1-903) [4], -29.2 kcal/mol; in the test with sIGF-1R(1-903) [6], -20.1 kcal/mol; with sIGF-1R(1-903) [9] it was -11.3 kcal/mol. Further, in the test with human IGF-1R(1-903)-Fc [7], the “% IGF-2 inhibition upon antibody saturation” value stood at 16%.

B9: M13-C06 Fab (Fab, V domains shown)
VH: B8 VH
VL: DIQMTQSPLSLSASVGDRVTITCQASRDIRNYLNWYQQKPGKAPKLLIYDASSLQTGVPSRFGGSGSGTDFSFTIGSLQPEDIATYYCQQFDSLPHTFGQGTKLEIK
notes: as for B4
For B9, in the test with hIGF-1R-Fc mutant SD015 [17], the “Biacore Relative RUmax” value is 0.04.
